The data set deals with the molecule itself. Nature of the data set: dynamic light scattering; 5 µM Dhh1 with an excess of 5 mM ATP/MgCl2, no RNA; reference buffer 90 mM KCl, 30 mM HEPES-KOH pH 7.4, 2 mM MgCl2; Zetasizer Nano ZS, 173° backscattering; combined with microscopy.

B1: mCherry-tagged Dhh1^48–425 (domain or fragment, yeast, UniProt P39517 48-425, looked up)
chain: FEDFYLKRELLMGIFEAGFEKPSPIQEEAIPVAITGRDILARAKNGTGKTAAFVIPTLEKVKPKLNKIQALIMVPTRELALQTSQVVRTLGKHCGISCMVTTGGTNLRDDILRLNETVHILVGTPGRVLDLASRKVADLSDCSLFIMDEADKMLSRDFKTIIEQILSFLPPTHQSLLFSATFPLTVKEFMVKHLHKPYEINLMEELTLKGITQYYAFVEERQKLHCLNTLFSKLQINQAIIFCNSTNRVELLAKKITDLGYSCYYSHARMKQQERNKVFHEFRQGKVRTLVCSDLLTRGIDIQAVNVVINFDFPKTAETYLHRIGRSGRFGHLGLAINLINWNDRFNLYKIEQELGTEIAAIPATIDKSLYVAENDET
notes: DEAD-box ATPase Dhh1 of yeast, residues 48-425: the two RecA domains without the N- and C-terminal low-complexity domains; also called tail-less Dhh1^48–425; LCD-lacking variant; source: E. coli BL21-Gold (DE3), purified (Ni2+ Chelating Sepharose, Superdex 75 SEC)
Consider B1, for which the binding result is given as “binds”.
